Article PMC1874611 (Nucleic Acids Research, 2007)

What was measured:
[1] = biological target: T1, chimeric GST-CycT1 (GST-T1; aa 1–292) (UniProt O60563 1-292); assay: pull-down
[2] = biological target: T1, chimeric GST-CycT1 (GST-T1; aa 1–292); assay: stopped-flow fluorescence

T1 sequence (O60563 1-292, change not shown): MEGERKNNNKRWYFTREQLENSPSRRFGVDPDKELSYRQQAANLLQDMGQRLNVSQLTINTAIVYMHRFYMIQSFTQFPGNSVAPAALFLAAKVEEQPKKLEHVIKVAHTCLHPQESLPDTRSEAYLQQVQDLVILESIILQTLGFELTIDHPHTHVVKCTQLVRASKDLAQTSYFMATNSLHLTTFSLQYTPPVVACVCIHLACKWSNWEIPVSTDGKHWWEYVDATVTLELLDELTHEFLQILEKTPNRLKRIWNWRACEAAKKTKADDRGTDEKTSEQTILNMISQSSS

B1: CycT1-binding domain of HEXIM1 (HEXIM1-TBD; aa 255–359) (domain or fragment)
chain: MGGDGSEFLQRDFSETYERYHTESLQNMSKQELIKEYLELEKCLSRMEDENNRLRLESKRLGGDDARVRELELELDRLRAENLQLLTENELHRQQERAPLSKFGD
binding result [1]: binds

B2: fluorescently labeled HEXIM1-TBD (HEXIM1-TBD*) (domain or fragment)
chain: B1 chain
modifications: dansyl-based fluorophore (position not given)
binding result [2]: binds
